Entries after “also recorded” stand apart in the source; their conditions may differ.
B1: IL-17A: recombinant murine IL-17A, pro-inflammatory cytokine (protein, UniProt Q62386 26-158, looked up)
Interleukin-17A: AAIIPQSSACPNTEAKDFLQNVKVNLKVFNSLGAKVSSRRPSDYLNRSTSPWTLHRNEDPDRYPSVIWEAQCRHQRCVNAEGKLDHHMNSVLIQQEILVLKREPESCPFTFRVEKMLVGVGCTCVASIVRQAA

How the values were obtained:
[1] = tested on: FoxP3 induction in OT-I CD8 T-cells by osteoclasts; assay: TcREG (FoxP3) induction in OT-I CD8 T-cells co-cultured with bone marrow-derived osteoclasts; type: cell-based, mice; details: in culture, IL-17 10 ng/ml, increasing TNFα, DAPT 10 μM, Fc proteins added to T-cells prior to co-culture
Method: It was also determined that IL-17 and TNFα suppresses TcREG induction by osteoclasts. […] Another possibility is that loss of estrogen leads to increased production of the pro-inflammatory cytokines by T-cells that increase osteoclast activity. Without being limited to any method of operation, it is actually expected that in the presence of pro-inflammatory cytokines osteoclasts fail to induce TcREG. As estrogen depletion lead to greater number of osteoclasts because of a decreased Fas ligand expression, the loss of TcREG induction and increased osteoclast numbers would tip the balance towards increased osteoclast resorption and net bone loss. To test fir this possibility, OC-iTcREG induction was measured in the presence of IL-17 and TNFα. […] To understand the underlying mechanism of how TNFα affects osteoclasts' ability to induce TcREG, the signals provided by osteoclasts to induce FoxP3 in the CD8 T-cells were investigated along with if these signals were affected by […].
(§1) The most common and well-studied costimulatory signals on antigen-presenting cells are CD80 (B7.1) and CD86 (B7.2). As CD80/CD86 double knockout mice are commercially available, osteoclasts were generated from bone marrow precursors of these mice. The CD80/CD86 null osteoclasts (as well as wild-type controls) were then used to prime OT-I T-cells in the presence and absence of antigen. […] OT-I CD8 T-cells activated by CD80/CD86 null osteoclasts produced IL-6, IL-2 and IFN-γ to levels indistinguishable from wild-type mice (FIG. 4B). Having ruled out CD80/CD86 as the costimulatory molecules, an osteoclast microarray dataset was queried for other costimulatory molecules expressed by osteoclasts. Osteoclasts that express CD200 and c-Mer were found. The role of CD200 was chosen for testing based on the phenotype of CD200^−/− mice and the reported role for CD200 in regulating TcREG.
The most, well characterized regulator of FoxP3 in T-cells is TGFβ. It has been previously shown that neutralization or addition of TGFβ has no effect on the induction of TcREG. Therefore identification of other pathways that can regulate the FoxP3 promoter in T-cells was sought. A number of previous studies have identified that the Notch signaling contributes to FoxP3 induction. To test if Notch signaling is important for TcREG induction by osteoclasts, the γ-Secretase inhibitor DAPT was initially used. Ligation of the Notch receptor by its ligand leads to cleavage of Notch by γ-secretase. […] Next, we identified the Notch ligands expressed in osteoclasts using reverse-transcription followed by PCR. […] Of the four, the osteoclast-precursors (bone marrow cells treated with M-CSF but not RANKL) express all of the ligands except DLL4 (FIG. 5C). To assess the role of DLL4 in TcREG (soluble) DLL4-Fc was added to OT-I CD8 T-cells prior to co-culturing with osteoclasts. […] To assess the role of DLL4 in vivo the induction experiments as described in FIG. 1 were performed: GFP negative (polyclonal) CD8 T-cells were purified by cell sorting and transferred into OT-II Rag^−/− mice. Two hours prior to RANKL treatment, DLL4-Fc or a control IgG1-Fc, were injected intravenously into the recipient mice, As described for FIG. 1, RANKL (0.125 mg/kg) was then administered on two consecutive days.
DLL-4 expression is repressed in the presence of […] and IL-17 but can be de-repressed by RANKL. […]

[2] = tested on: DLL4; assay: DLL4 expression in mature osteoclasts by qRT-PCR; type: cell-based, mouse; details: overnight in 20 ng/ml TNFα or 10 ng/ml IL-17
Description: DLL-4 expression is repressed in the presence of […] and IL-17 but can be de-repressed by RANKL. Having identified that DLL4 was required for osteoclasts to induce Foxp3 expression in CD8+ T cells we next tested if DLL-4 expression was affected by pro-inflammatory cytokines. […] As RANKL induced DLL4 in osteoclast precursors, it was hypothesized that adding additional RANKL may overcome the repression of DLL4 by TNFα. To assess the reversibility of DLL4 expression, mature osteoclasts were cultured overnight in 50 ng/ml RANKL and 20 ng/ml […], and then additional RANKL was added to the culture media (while maintaining 20 ng/ml TNFα) as shown in FIG. 5E. Indeed, addition of RANKL overcomes (within 24 hours) the repression of DLL4 by TNFα as assessed by qRT-PCR. […] The experiment was performed as above, but in this case FoxP3 induction in OT-I CD8 T-cells in the presence of OVA and either 10 ng/ml or 20 ng/ml TNFα was measured.
(§2) Osteoclasts seeded on day 4 at 1.5×10^6 cells/ml were used in all experiments. RNA was isolated at time point described in Figure legends. 10 to 50 ng of RNA was used for first-strand cDNA synthesis in 50 μL reaction per kit instructions (Superscript III cDNA synthesis system; Invitrogen). In all cases 10% of the cDNA product was used in a 50 μL PCR reaction that contained 10 μM each forward and reverse primers. For quantitative PCR (qPCR) SYBR green system (Invitrogen) was used. Otherwise, cDNA was amplified (25 cycles) and the products resolved on 1.2% agarose gel and visualized by ethidium bromide staining.

[3] = tested on: CD200; assay: CD200 expression in mature osteoclasts by qRT-PCR; type: cell-based, mouse; details: TNFα 20 ng/ml or IL-17A 10 ng/ml
Description: as §1, §2

Molecule	effect of added agent on TcREG/FoxP3 induction by osteoclasts [1]	DLL4 transcripts in mature osteoclasts after cytokine [2]	CD200 mRNA expression in mature osteoclasts [3]	effect of added agent on TcREG/FoxP3 induction by osteoclasts ([1]; listed as IL-17)	DLL4 transcripts in mature osteoclasts after cytokine ([2]; listed as IL-17)	CD200 mRNA expression in mature osteoclasts ([3]; listed as IL-17)
C[C@H](NC(=O)Cc1cc(F)cc(F)c1)C(=O)N[C@H](C(=O)OC(C)(C)C)c1ccccc1 [DAPT, reference compound]	completely inhibited TcREG induction; also recorded: completely abrogated FoxP3 induction					
TNFα [reference compound]	reduced TcREG induction in a dose dependent manner; also recorded: greatly impaired	DLL4 expression was repressed; also recorded: significantly reduced	had no effect on CD200 expression; also recorded: not altered			
B1	significantly reduced	DLL4 expression was repressed	had no effect on CD200 expression	greatly impaired	significantly reduced	not altered

Source: patent US10745461B2, “Pulsed introduction of low-dose RANKL as a therapy for diet-induced atherosclerosis” (Saint Louis University, priority 2015, dated 2020)
